Experimental data reported in patent US20220041738A1 (SAITAMA MEDICAL UNIVERSITY, published 2022).
Substitutions are numbered along the chain they refer to.

What was measured:
Test in all cases: immunofluorescence on transfected, formalin-fixed C2C12 cells, IgG at 10 µg/mL, Alexa 594 anti-rat IgG
[1] = biological target: T1, human ALK2-G328R on cells (human, UniProt Q04771 21-509)
T1 sequence: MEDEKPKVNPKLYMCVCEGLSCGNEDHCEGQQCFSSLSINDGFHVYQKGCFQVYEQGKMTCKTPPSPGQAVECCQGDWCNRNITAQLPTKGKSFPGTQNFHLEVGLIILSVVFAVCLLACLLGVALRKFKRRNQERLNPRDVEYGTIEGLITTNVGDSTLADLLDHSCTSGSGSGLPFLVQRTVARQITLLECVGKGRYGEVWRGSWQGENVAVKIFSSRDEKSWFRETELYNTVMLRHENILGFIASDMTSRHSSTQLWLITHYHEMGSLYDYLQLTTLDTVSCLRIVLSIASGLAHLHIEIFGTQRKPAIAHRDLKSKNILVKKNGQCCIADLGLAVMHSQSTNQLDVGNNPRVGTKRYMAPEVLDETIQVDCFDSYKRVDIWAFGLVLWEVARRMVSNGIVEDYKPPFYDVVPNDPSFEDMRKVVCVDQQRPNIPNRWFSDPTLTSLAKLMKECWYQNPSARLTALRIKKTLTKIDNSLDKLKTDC
Protocol: (§1) Mouse C2C12 cells were seeded into a 96-well plate (Greiner Bio-One) at 0.5×10³ cells/well, and cultured in 15% FBS-containing DMEM medium overnight under the conditions of 5% CO₂ at 37° C. On the following day, the C2C12 cells were transfected with each of a wild-type human ALK2 cDNA integrated into pcDEF3; pcDEF3/human ALK2-L196P, pcDEF3/human ALK2-P197_F198delinsL, pcDEF3/human ALK2-R202I, pcDEF3/human ALK2-R206H, pcDEF3/human ALK2-Q207E, pcDEF3/human ALK2-R258S, pcDEF3/human ALK2-G325A, pcDEF3/human ALK2-G328E, pcDEF3/human ALK2-G328R, pcDEF3/human ALK2-G328W, pcDEF3/human ALK2-G356D, and pcDEF3/human ALK2-R375P, which are variants identified in FOP; and pcDEF3 as a control, using Lipofectamine 2000 (Invitrogen), and further cultured overnight.
(§2) The C2C12 cells were fixed with 10% neutral formalin (Nacalai Tesque, Japan) for 20 minutes at room temperature, and then blocked with 10% goat normal serum for 30 minutes. After the blocking agent was removed, purified IgG diluted to 10 μg/mL with the blocking agent was added, and the cells were left for 1 hour at room temperature. After the cells were washed with PBS three times, Goat Alexa 594-conjugated anti-rat IgG (Invitrogen) diluted to 1:1000 with the blocking agent was added, and the cells were left for 1 hour at room temperature. After the cells were washed with PBS three times, the cells were fixed with 10% neutral formalin for 15 minutes at room temperature, and nuclear-stained with DAPI (LifeTechnologies). Fluorescent signals were analyzed with a fluorescence microscope BZ-9000 (Keyence).

[2] = biological target: T2, human ALK2-R202I on cells (human, UniProt Q04771 21-509)
T2 sequence: T1 sequence with R182I, R308G
Protocol: as §1, §2

[3] = biological target: T3, human ALK2-R206H on cells (human, UniProt Q04771 21-509)
T3 sequence: T1 sequence with R186H, R308G
Protocol: as §1, §2

[4] = biological target: T4, human ALK2-G328E on cells (human, UniProt Q04771 21-509)
T4 sequence: T1 sequence with R308E
Protocol: as §1, §2

Measured: binding result

B1: rat anti-ALK2 monoclonal antibody A2-25C (antibody, V domains shown)
VH: EVQLVESGGGLVQPGGSLKLSCAASGFTFSYYAMSWVCQAPTKGLEWVASISRGGDNTYYRDTVKGRFTTSRDNAKNTLYLQMDSLRSEDTATYYCARLNYNNYFDYWGQGVMVTVSS
VL: DIQMTQSPASLSASLEEIVTITCQASQDIGNWLSWYQQKPGKSPQLLIYGATSLADGVPSRFSGSRSGTQYSLKISRLRVEDIGIYYCLQAYSAPFTFGSGTKLEIKR
notes: Rat monoclonal IgG from a hybridoma; also called 25C11
binds: all assays above

B2: rat anti-ALK2 monoclonal antibody A2-27D (antibody, V domains shown)
VH: EVQLVESGGGLVQPGRSLKLSCLASGSTFSNYGMKWIRQAPGKGLEWVASISRSSTYIYYADTVKGRFTISRDNARNTLYLQMTSLRSEDTALYYCAAAISTPFYWYFDFWGPGTVVTVSS
VL: EIVLTQSPTTMAASPGEKVTLNCLASSSVSYMTWYQQKSGASPKLWIYGTSNLASGVPNRFSGSGSGTSYSLAISSMEAEDVATYYCLHLTSYPPYTFGAGTKLELKR
notes: Rat monoclonal IgG from a hybridoma; also called 27D11
binds: all assays above
